± gives the uncertainty stated by the source.
Assay: protein stability index of a GFP-peptide fusion (yeast GPS) (PSI 1-4); higher = more stable; sorted into four equal gates, so the index is relative within each strain
In short: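 Peptides tiling yeast proteins in 17-residue segments were fused downstream of GFP, with Cherry expressed from the same plasmid. As a pooled library in yeast, mid-log cultures grown in leucine-free medium were sorted into four equal gates by GFP/Cherry fluorescence ratio. Gate plasmids were PCR-amplified and Illumina-sequenced, and barcodes linked reads to strains. Each peptide received a protein stability index equal to the sum of each gate's read frequency times its gate number.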

Sequence	protein stability index (doa10∆)	protein stability index (pdr5∆)	protein stability index (san1∆)	protein stability index (ubr1∆)
HCIDYLRKNKLGYARFI [SMC4]	1.19 ± 0.036	1.21 ± 0.039	1.14 ± 0.091	1.14 ± 0.04
HDEKLSDELHNQSTIYE [LIN1]	2.91 ± 0.11	2.74 ± 0.12	2.73 ± 0.16	2.77 ± 0.097
HDSSNGLFQVLHNFESV [NUT1]	3.16 ± 0.064	3.15 ± 0.064	2.79 ± 0.07	3.242 ± 0.031
HDVLQKLNTLSEILSFD [YML103C/NUP188]	2.99 ± 0.068	3.2 ± 0.067	3.03 ± 0.051	3.14 ± 0.041
HESYCLPMDTNLFKINS [YMR129W/POM152]	1.54 ± 0.055	1.72 ± 0.039	1.74 ± 0.13	1.37 ± 0.067
HEYIRHLALEIGEVYND [RPN1]	2.29 ± 0.065	2.09 ± 0.067	2.49 ± 0.11	1.54 ± 0.077
HFTEIKLNKVDKNELQQ [SIR3]	2.86 ± 0.056	2.88 ± 0.056	3 ± 0.04	3.07 ± 0.049
HGINLQNKKNLKWVAVV [SSN2]	2.98 ± 0.066	3.11 ± 0.051	3.05 ± 0.057	3.23 ± 0.057
HGQLKLSIQYMIQKVME [RPN5]	2.17 ± 0.1	2.73 ± 0.081	2.04 ± 0.15	2.84 ± 0.085
HHDGKLWNLNAYRTDVI [PRP8]	2.94 ± 0.082	3.28 ± 0.092	3.04 ± 0.074	3.07 ± 0.071
HIKKLLHQYYGDDESKI [FAS1]	2.24 ± 0.084	2.9 ± 0.085	3.07 ± 0.074	3 ± 0.12
HILLTELLAYQFASPVR [FAS2]	1.81 ± 0.019	1.7 ± 0.018	1.81 ± 0.027	1.768 ± 0.017
HINSILLARVIQMNNSL [SNF11]	2.22 ± 0.13	1.94 ± 0.11	1.96 ± 0.12	1.7 ± 0.092
HIQVNQAPKQRRRTYRA [RPL17A]	1.89 ± 0.12	2.34 ± 0.11	2.38 ± 0.2	3.28 ± 0.14
HKLVFVVRIKGINKIPP [RPL7A]	1.4 ± 0.038	1.57 ± 0.046	1.52 ± 0.094	1.64 ± 0.053
HKMSMMAHRVKVIPYST [RPO21]	2.47 ± 0.065	2.64 ± 0.062	2.82 ± 0.079	2.44 ± 0.084
HKSDVMSVDIDKKASMI [ASC1]	3 ± 0.1	2.79 ± 0.083	2.48 ± 0.082	2.87 ± 0.11
HKVSSQSTNLNRSAKNS [YCS4]	2.24 ± 0.054	2.41 ± 0.05	2.38 ± 0.079	2.32 ± 0.05
HLELYTSQYGTPSTETA [PRE3]	1.39 ± 0.043	1.9 ± 0.04	1.44 ± 0.084	1.64 ± 0.037
HLGKGTMTMDVFNDAHV [RPN1]	2.96 ± 0.073	2.98 ± 0.084	2.06 ± 0.12	2.87 ± 0.081
HLLLGFQVSNVISLGPN [YJL039C/NUP192]	1.37 ± 0.052	1.75 ± 0.049	2.08 ± 0.088	1.8 ± 0.042
HLLRQTNAFLDSLTRAV [SNF2]	2.61 ± 0.061	2.6 ± 0.066	2.69 ± 0.044	2.65 ± 0.033
HLSKSPADRPQGRRNSR [SIR4]	2.79 ± 0.089	2.85 ± 0.067	2.75 ± 0.059	2.78 ± 0.058
HLVMRAISLGLLKGSID [RPN9]	2.04 ± 0.095	2.55 ± 0.14	1.58 ± 0.18	1.79 ± 0.16

Sequence	protein stability index (doa10∆)	protein stability index (pdr5∆)	protein stability index (san1∆)	protein stability index (ubr1∆)
HNHDTGCDENDSTVNKS [YDL088C/ASM4]	3.2 ± 0.09	3.2 ± 0.079	3.3 ± 0.057	3.05 ± 0.068
HNSHLSLNYKFTTNKSK [SRP21]	2.46 ± 0.073	2.07 ± 0.052	2.38 ± 0.076	2.41 ± 0.05
HPLHELIIQYPPNNARR [ISW2]	3.06 ± 0.065	2.88 ± 0.056	2.73 ± 0.052	3 ± 0.047
HPPFIKYACLAIRKNGQ [SIN4]	1.45 ± 0.042	1.51 ± 0.039	1.68 ± 0.065	1.42 ± 0.031
HQNESSAASIPPQQTYH [RPN4]	2.57 ± 0.054	2.89 ± 0.074	2.53 ± 0.066	2.69 ± 0.057
HQQQQQQQQQQQQQQQQ [SNF5]	2.78 ± 0.056	2.88 ± 0.049	2.88 ± 0.056	2.93 ± 0.055
HRASPADVSIKSILQEI [POP5]	3.11 ± 0.26	3.27 ± 0.1	2.95 ± 0.12	
HRINMDKYHPGYFGKVG [RPL28]	3.4 ± 0.074	3.41 ± 0.059	3.24 ± 0.061	3.24 ± 0.068
HSFAVLLHERKLLNDLA [NUT1]	2.68 ± 0.049	2.49 ± 0.057	2.46 ± 0.086	2.71 ± 0.036
HSLSQAIKWDGSSGGVI [PRE3]	3.69 ± 0.28	3.27 ± 0.21	2.67 ± 0.21	
HTEDESTKELKFSDIIQ [BRN1]	3.11 ± 0.2	2.89 ± 0.21	3.23 ± 0.22	3.41 ± 0.094
HTIFSDVCKTRFNHLVT [YML031W/NDC1]	2.27 ± 0.045	2.09 ± 0.044	2.15 ± 0.051	2.04 ± 0.034
HTSIRETLENGETRMKM [SMC2]	2.65 ± 0.11	2.79 ± 0.13	2.85 ± 0.12	2.95 ± 0.083
HTVTNSPNPTLQPVIPG [SNF5]	2.55 ± 0.052	2.32 ± 0.049	2.53 ± 0.052	2.78 ± 0.042
HVKRITKIAQSQTMAET [ECM29]	2.33 ± 0.057	2.46 ± 0.036	2.02 ± 0.061	2.07 ± 0.033
HVLKKNPLKNKQVLLRL [RPL4A]	1.43 ± 0.15	1.79 ± 0.086	1.3 ± 0.13	2.38 ± 0.088
HVLVGDLIKFSAETLSE [FAS1]	2.38 ± 0.1	2.78 ± 0.1	2.67 ± 0.1	2.79 ± 0.089
IAAKLINSGLYSVLLES [YML103C/NUP188]	2.54 ± 0.099	2.08 ± 0.099	2.7 ± 0.076	2.67 ± 0.095
IAAKTHILRISFLDRKR [SIN4]	2.53 ± 0.1	2.65 ± 0.09	1.84 ± 0.073	2.42 ± 0.049
IAEGKSKQDASPKPYAV [RPL8B]	3.02 ± 0.077	3.38 ± 0.063	3.12 ± 0.06	3.23 ± 0.049
IAINFTVNHSEKFPNDV [RPP1]	2.68 ± 0.068	2.87 ± 0.047	2.95 ± 0.051	3.02 ± 0.058
IALLTLKESVEGEFNGD [PRE8]	2.77 ± 0.21	2.77 ± 0.17	2.64 ± 0.15	2.75 ± 0.11
IASDGSYVNYRHMALLV [RPO21]	1.68 ± 0.055	1.89 ± 0.051	1.35 ± 0.067	1.59 ± 0.038

— the supplement of paper PMC9732359
